test: soluble on expression in E. coli; label from the status in PepcDB or PDB records

| Sequence | soluble on expression in E. coli |
| --- | --- |
| MSLATKDPTAVERANLLNMAKLSIKGLIESALSFGRTLDSDYPPLQQFFVVMEHCLKHGLKGRKSFLSYNKTIWGPLELVEKLYPEAEEIGASVRDLPGLKTPLGRARAWLRLALMQKKMADYLRCLIIQRELLSEFYEYHALMMEEEGAVIVGLLVGLNVIDANLCVKGEDLDSQVGVIDFSMYLKNEEEIGNKERNVQIAAILDQKNYVEELNRQLNSTVSSLHSRVDSLEKSNTKLIEELAIAKNNIIKLQEENHQLRSENELILMRTRQHLEVTKVDVETELQTYKHSRQGLDEMYNDARRQLRDESQLRQDVENELSVQVGMKHEMELAMKLLEKDIHEKQDTLIGLRQQLEEVKAINIEMYQRLQGSEDGLKEKNEIIARLEEKTNKITTAMRQLEQRLQQAEKAQKEAEAEDEKYAQECLSQSDSLQRQISQKEQQLVQLETDLKIEKEWRQTLQEDLQKEKDVLSHLRHETQKVISLKKEFLNLQDENQQLKRIYQEQEQALQELGSKLCESKLKIDDIKEANKALQGLVWLKDKDATHCKLCEKEFSLSKRKHHCRNCGEIFCNACSDNELPLPSSPKPVRVCDSCHAMLIQRCSSNMPEGHHHHHH | not soluble |
| RKVAAKMMQHQLEKHLKALNFDNPLFWTSLPTAADVCNAMNKRGLIYYCGDDFGALAGVDHQTVMEHERTLVDSADFILAASDKLAARFPDNKTTTLPHGVDFSLFSTPAEKASDLPNNGRKILGFYGSLSDWLDYRLIDQVAQHAPDWDLVFIGPNEFAHNPLPQRDNVHYLGPRAHHLLPSYSQHWDASWLPFVDNAQIKACNPLKLLE | not soluble |
| MGSDKIHHHHHHMPIDEWLVLNRIGIFENPSLRRYVSPFPPPELMGITSGLQSETGFAAHGADIYAALALASTIPITEYRHILDFGCGCGRLARMLKGHPHKISGCDIDLRHVKWIGQSLDFMNVKLSSVRPPIPFADDEMDAVISVSIFTHLTENSQDDFLAELFRVTRPGGTLFLTVHGAQALKRACHEQPIRHMLDMDEGRFRKAQQAFNQNKHGFVLQFGHLTTKPEKAFYTPRAIFRRIRDSFSRKTINMPFEYGIAFHPESYIREHWSKWFDILDYRHGAIHQFQDIVVLSPKK | not soluble |
| MGHHHHHHSHMPMYQVKPYHGGGAPLRVELPTCMYRLPNVHGRSYGPAPGAGHVQEESNLSLQALESRQDDILKRLYELKAAVDGLSKMIQTPDADLDVTNIIQADEPTTLTTNALDLNSVLGKDYGALKDIVINANPGSPPLSLLVLHRLLCEHFRVLSTVHTHSSVKSVPENLLKCFGEQNKKQPRQDYQLGFTLIWKNVPKTQMKFSIQTMCPIEGEGNIARFLFSLFGQKHNAVNATLIDSWVDIAIFQLKEGSSKEKAAVFRSMNSALGKSPWLAGNELTVADVVLWSVLQQIGGCSVTVPANVQRWMRSCENLAPFNTALKLLK | not soluble |
| MSHRSPSVTPAVSVLIPAWNAVRHLPAALDGLLSQTFQDWEAVVVDDGSQDETPALLAAYAARDARIRPLHVEHGGIVHALNHGLLHVRGRHVARMDADDTCHPERLALQCHALDNAPHLGLVASRVTFGGDAAQCGGFVRYVDWTNSLLCHEDIALGRFRESPLVHPSVMFRRELIDRFGPYANGPFPEDYELWLRWLEAGVRMEKLPEHLLVWNDPPGRLTRTHDNYAEAGFVALRTRYLARWLCAHNPQHPDVWVIGAGKASRRRARPLCEHGIRIRAWVDIDPHKIGNIVEGLPVVGREAMPAPGQGFMLAFLAGHGAAEELELFLHGAGYLPGQDYLLASLEHHHHHH | soluble |
| IDKAIRDGNVLGFRTEYYKTLSEKDDIDDETSSTGIDKKEALENPIRISEIVDFILKNYNRLTKRNEEFFEHNKIANINEVITSRNKLSENKVLTTLNGFNSILACSSINAAKIYYSEFKKQQQKFPQEEKLKIGLIYSYLPSEQ | not soluble |
| MSTCKQFLSTKKKSKDSYEFIENLGEGSFAEVVLVAKVGTPNKMFAMKEISIVGKDECFMESIKRECSIQKRLSKSRHLNMIHLFEIRTNPENYQLILSYADGGDLFEKINQHGGLGSDEAHRYFKQLIDGLRFIHEEGVTHRDIKPENLLLTKSGILKIADFGFATMHRFNGAEQMLNAYCGSPPYIAPEVLTGIDYRGPAVDIWSAGVVLIAMIAGAVPWEQADHFDIFQSRYCSFRRNGRKGAWSRMSQQVISLLRKILLQAELRATISMIEEDPWFIYGEEVDAENKENGSQAQYRQESQTSSKPILNFENLLKDLNVSI | not soluble |
| MSNEEARSAGDLRNTGLSLRHDRTWDYELDRIVDEVERKDAEKVGLQFPEGLKRRGPAVADDLRARLDDTRIMLSGQPCYGACDLDTYLMRRTDVFVHFGHSPMKESDSIIYVPLFSNVDVEPIMQEARDELHDGDVGLVTTAQHMNQFEEMRTWLEERGYTVHTRRGDDRLTNEGQVLGCNYASADIDADQVLYVGGGKFHPLGLAMEHPEKNVVIADPVNNAVSIADAEQFLKERYASVHKAMDAEQWGVIFCTKIGQGRFDQAEEIVENNDNAYLITMDEVTPDRLMNFDMDAFVNTGCPRITTDDGPQFHKPMLTPGEYEIAVGNKPLEDLSFDTFHGTWLEHHHHHH | not soluble |
| MKGGIVHSDGSYPKDKFEKINGTWYYFDSSGYMLADRWRKHTDGNWYWFDNSGEMATGWKKIADKWYYFNEEGAMKTGWVKYKDTWYYLDAKEGAMVSNAFIQSADGTGWYYLKPDGTLADRPEFTVEPDGLITVK | soluble |
| MILRRPSQADKEAILDMMGEFEREKSVHDGGFWNADNFIYEEWLEENLQSEAGLNIPENWVPAIQLVSFNESGHALGFLHLRLRLNGRLLEKGGHIGYSIRPSERGKGYAKESLRQGLQVAKEKNIQRALVTCSTENPASRAVILANGGQLEDICNETERYWIDLE | not soluble |
| MGSLVHVKEATVITPSDQTPSSVLSLSALDSQLFLRFTIEYLLVYPPVSDPEYSLSGRLKSALSRALVPYFPFSGRVREKPDGGGGLEVNCRGQGALFLEAVSDILTCLDFQKPPRHVTSWRKLLSLHVIDVLAGAPPLVVQLTWLRDGGAALAVGVNHCVSDGIGSAEFLTLFAELSKDSLSQTELKRKHLWDRQLLMPSPIRDSLSHPEFNRVPDLCGFVNRFNAERLVPTSVVFERQKLNELKKLASRLGEFNSKHTSFEVLSAHVWRSWARSLNLPSNQVLKLLFSVNIRDRVKPSLPSGFYGNAFVVGCAQTTVKDLTEKGLSYATMLVKQAKERVGDEYVRSVVEAVSKERASPDSVGVLILSQWSRLGLEKLDFGLGKPVHVGSVCCDRYCLLLPIPEQNDAVKVMVAVPSSSVDTYENLVTSPNA | not soluble |
| MGSDKIHHHHHHMSSIIENLQLAAQQVHLINLYQANSEVVYTGYIDRLAPDGVVVNTYDDAGLQDGAVFMRYDVIDEVEMMSEDLDNMAFRLENATTEGLNSVPQPTVALDDQRPVLTQLVTQAQTDHQVVLLVLEDNENYLEGQVQQVTDQTITFKTFDKFNFKNNGQQEIPLAAIQILEFCGNELLLESAFVKTIHTHRATIKVSEFDDVDHTLNNALNEHQLIAIRSADGSDMFFVGFINALNADSVLLNLIDMTGQFGGYTLCRRSLIESVTTQSDYLQTMRGFIELNRQYELNVQPVLNDERLFDATTDLFDSILRQAATFNNLVHITTENPMLPAMTGYPGTLTNGHFIFYNVDDDNQINHVGTMIELDQVVELSFGYMDAYLLEKRLKSTGNL | not soluble |
| MGSDKIHHHHHHMRILISPPMRFGKEFLGGMRRTLEVYSRMGEEVYLCVDERTLPQVDPEISPLLSKFHLVSSSSTDKKTYLKGFLNCLKYARKVDVLISYSEYSLSVYYTWLLSLFSRKPFIVVVHHVTEEIRGSKFLRTVIARSKGIICLDNPEVYEELKSLFPNKVILTSTNGVSVEDYYTSEEKICDGIFVGNYGERKGSRYLFQIWDKVNEKIDAKLCIIGKGWSEIPKNSVYYGFVTEREKIDLLAKSKVFVFPSLYEGFALAVTEALSAYLPVVTWDLKWSERYPVAIRVTYPDISSFAEEVVKLLKDEKLRKSIGEKSRELAKTLNWEKAAEMEKKAIYKIMESK | not soluble |
